# According to the supplement of paper PMC10567573:
# B1: MATN2 (parent)
# chain: VNVPGSFVCQCYSGYALAEDGKRC
# B2: SOAT1 (parent)
# chain: VYYIFERLCAPLFRNIKQEPFSAR
# Variants of: B1
# Assay: protein stability index of a GFP-peptide fusion (GPS, HEK-293T) (PSI 1-6); higher = more stable
# Details: c terminus: a fixed tail appended
# 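Also: lentivirally expressed fusions sorted by FACS into six bins by GFP to DsRed ratio, PSI derived from sequencing read proportions per bin multiplied by bin number.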
row,Variant,protein stability index
1,VNVPGSFDCQCYSGYALAEDGKRC,3.89
2,VNVPGSFPCQCYSGYALAEDGKRC,2.28
3,VNVPGSIVCQCYSGYALAEDGKRC,1.92
4,VNVPGSRVCQCYSGYALAEDGKRC,3.21
5,VNVPGSNVCQCYSGYALAEDGKRC,1.06
6,YNVPGSFVCQCYSGYALAEDGKRC,2.85
7,ENVPGSFVCQCYSGYALAEDGKRC,2.59
8,VNVMGSFVCQCYSGYALAEDGKRC,2.1
9,VNQPGSFVCQCYSGYALAEDGKRC,2.26
10,VNHPGSFVCQCYSGYALAEDGKRC,1.81
11,VNFPGSFVCQCYSGYALAEDGKRC,1.69
12,VNCPGSFVCQCYSGYALAEDGKRC,1.08
13,VNVPGSFVCQCYSGYALAEDGRRC,1.08
14,VNVPGSFVCQCYSGGALAEDGKRC,2.14
15,VNVPGSFVCQCYSGIALAEDGKRC,2.23
16,VNVPGSFVCQCYEGYALAEDGKRC,2.1
17,VNVPGSFVCQCYSGYADAEDGKRC,2.51
18,VNVPGSFVCQCYSGYASAEDGKRC,1.57
19,VNVPGSFVCQCYSGYAHAEDGKRC,2.27
20,VNVPGSFVCQCYSGYAKAEDGKRC,1.81
21,VNVPGSFVCQCYSHYALAEDGKRC,2.37
22,VNVPGSFVCQCYSNYALAEDGKRC,1.56
23,VNVPGSFVCQCYSLYALAEDGKRC,3.03
24,VNVPGSFVCQCYSAYALAEDGKRC,2.37
25,VNVPGSFVCQCYSGYPLAEDGKRC,1.49
26,VNVPGSFVCQCYSGYALAEDDKRC,2.43
27,VNVPGSFVCQCYSGYALAEDRKRC,2.08

row,Variant,protein stability index
1,VNVPGSFVCQCYSGYALAEKGKRC,1.65
2,VNVPGSFVCQCYSGYALAEEGKRC,1.85
3,VNVPGSFVCQCYSGYALAEHGKRC,2.1
4,VNVPGSFVCQCYSGYALAEMGKRC,1.72
5,VNVPGSFVCQCYSGYALAEVGKRC,1.87
6,VLVPGSFVCQCYSGYALAEDGKRC,2.28
7,VHVPGSFVCQCYSGYALAEDGKRC,1.97
8,VFVPGSFVCQCYSGYALAEDGKRC,2.64
9,VAVPGSFVCQCYSGYALAEDGKRC,1.9
10,VNVPGSFVCQCYSGYALAEDGKRV,3.76
11,VNVPGSFVCQCYSGYALAEDGKRE,1.94
12,VNVPGSFVCQCYSGYALACDGKRC,3.15
13,VNVPGSFVCQCYSGYALAQDGKRC,1.75
14,VNVPGSFVCQCYSGYALAYDGKRC,1.7
15,VNVPGSFVCQCYSGYALAKDGKRC,2
16,VNVPMSFVCQCYSGYALAEDGKRC,1.47
17,VNVPYSFVCQCYSGYALAEDGKRC,1.2
18,VNVPESFVCQCYSGYALAEDGKRC,1.79
19,VNVPGRFVCQCYSGYALAEDGKRC,3.39
20,VNVPGVFVCQCYSGYALAEDGKRC,1.84
21,VNVPGSFVCQPYSGYALAEDGKRC,2.42
22,VNVPGSFVCQCYSGYALAEDGKVC,2.41
23,VNVPGSFVCQCYSGYALAEDGKHC,1.62
24,VNVPGSFVCQCYSGYALAEDGKLC,2.62
25,VNVPGSFVCQCPSGYALAEDGKRC,3.02
26,VNVPGSFVCQCQSGYALAEDGKRC,1.76

# Variants of: B2
# Assay: as above
# Details: c terminus: a fixed tail appended
row,Variant,protein stability index
1,VYYIFERLCAPLFRNIKQEPFSAL,2.79
2,VYYIFERLCAPLFRNIKQEPFSAV,2.57
3,VYYIFERLCAPLFRNIKQEPFSAN,4.22
4,VYYIFERLCAPLFRNIKQEPFSAY,1.88
5,VYYIFERLCAPLFRNIKQEPFSAI,2.73
6,VYYIFERLCAPLFRNIKQEPFSAE,3.4
7,VYYIFERLCAPLFRNIKQEPFSAK,2.42
8,VYYIFERLCAPLFRNIKQEPFSAD,3.13
9,VYYIFERLCAPLFRNIKQEPFSAM,2.64
10,VYYIFERLCAPLFRNIKQEPFSAH,2.48
11,VYYIFERLCAPLFRNIKQEPFSAA,2.27
12,VYYIFERLCAPLFRNIKQEPQSAR,1.77
13,VYYIFERLCAPLFRNIKQEPHSAR,1.59
14,VYYIFERLCAPLFRNIKQEPRSAR,2.74
15,VYYIFERLCAPLFRNIKQEPSSAR,2.13
16,VYYIFERLCAPLFRNIKQEPPSAR,2.26
17,VYYIFERLCAPLFRNIKQEPLSAR,1.7
18,VYYIFERLCAPLFRNIKQEPVSAR,2.97
19,VYYIFERLCAPLFRNIKQEPTSAR,2.7
20,VYYIFERLCAPLFRNIKQEPISAR,2.94
21,VYYIFERLCAPLFRNIKQEPESAR,2.39
22,VYYIFERLCAPLFRNIKQEPDSAR,2.17
23,VYYIFERLCAPLFRNIKQEPCSAR,1.99

row,Variant,protein stability index
1,VYYIFERLCAPLFRNIKQEPNSAR,1.36
2,VYYIFERLCAPLFRNIKQEPWSAR,3.02
3,VYYIFERLCAPLFRNIKQEPMSAR,2.64
4,VYYIFERLCAPLFRNIKQEPYSAR,2.9
5,VYYIFERLCAPLFRNIKQEPASAR,2.07
6,VYYIFERLCAPLFRNIKQENFSAR,2.53
7,VYYIFERLCAPLFRNIKQEQFSAR,2.44
8,VYYIFERLCAPLFRNIKQEAFSAR,2.34
9,VYYIFERLCAPLFRNIKQEVFSAR,2.6
10,VYYIFERLCAPLFRNIKQEIFSAR,2.71
11,VYYIFERLCAPLFRNIKQEMFSAR,2.49
12,VYYIFERLCAPLFRNIKQEYFSAR,4.1
13,VYYIFERLCAPLFRNIKQEGFSAR,2.71
14,VYYIFERLCAPLFRNIKQELFSAR,2.48
15,VYYIFERLCAPLFRNIKQEKFSAR,1.88
16,VYYIFERLCAPLFRNIKQESFSAR,1.36
17,VYYIFERLCAPLFRNIKQETFSAR,3.49
18,VYYIFERLCAPLFRNIKQEWFSAR,2.79
19,VYYIFERLCAPLFRNIKQEPFNAR,2.3
20,VYYIFERLCAPLFRNIKQEPFHAR,1.92
21,VYYIFERLCAPLFRNIKQEPFMAR,3.1
22,VYYIFERLCAPLFRNIKQEPFQAR,1.46
23,VYYIFERLCAPLFRNIKQEPFDAR,2.88

row,Variant,protein stability index
1,VYYIFERLCAPLFRNIKQEPFTAR,2.36
2,VYYIFERLCAPLFRNIKQEPFWAR,2.91
3,VYYIFERLCAPLFRNIKQEPFEAR,2.61
4,VYYIFERLCAPLFRNIKQEPFYAR,3.56
5,VYYIFERLCAPLFRNIKQEPFGAR,2.8
6,VYYIFERLCAPLFRNIKQEPFIAR,3.73
7,VYYIFERLCAPLFRNIKQEPFKAR,1.96
8,VYYIFERLCAPLFRNIKQEPFFAR,2.66
9,VYYIFERLCAPLFRNIKQEPFAAR,2.65
10,VYYIFERLCAPLFRNIKQEPFSTR,1.42
11,VYYIFERLCAPLFRNIKQEPFSPR,2.21
12,VYYIFERLCAPLFRNIKQEPFSYR,3.86
13,VYYIFERLCAPLFRNIKQEPFSCR,1.65
14,VYYIFERLCAPLFRNIKQEPFSKR,2.41
15,VYYIFERLCAPLFRNIKQEPFSSR,2.8
16,VYYIFERLCAPLFRNIKQEPFSRR,1.9
17,VYYIFERLCAPLFRNIKQEPFSIR,2.1
18,VYYIFERLCAPLFRNIKQEPFSNR,2.53
19,VYYIFERLCAPLFRNIKQEPFSWR,3.89
20,VYYIFERLCAPLFRNIKQEPFSLR,2.55
21,VYYIFERLCAPLFRNIKQEPFSQR,2.02
22,VYYIFERLCAPLFRNIRQEPFSAR,2.04
23,VYYIFERLCAPLFRNICQEPFSAR,4.42

row,Variant,protein stability index
1,VYYIFERLCAPLFRNIEQEPFSAR,3.03
2,VYYIFERLCAPLFRNIFQEPFSAR,1.74
3,VYYIFERLCAPLFRNIQQEPFSAR,2.52
4,VYYIFERLCAPLFRNIIQEPFSAR,1.47
5,VYYIFERLCAPLFRNIMQEPFSAR,2.78
6,VYYIFERLCAPLFRNINQEPFSAR,2.87
7,VYYIFERLCAPLFRNIYQEPFSAR,2.06
8,VYYIFERLCAPLFRNIVQEPFSAR,3.1
9,VYYIFERLCAPLFRNIDQEPFSAR,1.76
10,VYYIFERLCAPLFRNIKQTPFSAR,2.27
11,VYYIFERLCAPLFRNIKQAPFSAR,2.12
12,VYYIFERLCAPLFRNIKQWPFSAR,2.4
13,VYYIFERLCAPLFRNIKQYPFSAR,2.41
14,VYYIFERLCAPLFRNIKQDPFSAR,2.08
15,VYYIFERLCAPLFRNIKQIPFSAR,2.6
16,VYYIFERLCAPLFRNIKQQPFSAR,3.17
17,VYYIFERLCAPLFRNIKQFPFSAR,1.58
18,VYYIFERLCAPLFRNIKQCPFSAR,3.4
19,VYYIFERLCAPLFRNIKQGPFSAR,2.86
20,VYYIFERLCAPLFRNIKQHPFSAR,1.93
21,VYYIFERLCAPLFRNIKQMPFSAR,1.88
22,VYYIFERLCAPLFRNIKQKPFSAR,2.4
23,VYYIFERLCAPLFRNIKQPPFSAR,2.76

row,Variant,protein stability index
1,VYYIFERLCAPLFRNIKQNPFSAR,1.47
2,VYYIFERLCAPLFRNIKQLPFSAR,1.52
3,VYYIFERLCAPLFRNIKPEPFSAR,2.92
4,VYYIFERLCAPLFRNIKKEPFSAR,1.37
5,VYYIFERLCAPLFRNIKWEPFSAR,2.6
6,VYYIFERLCAPLFRNIKREPFSAR,2.62
7,VYYIFERLCAPLFRNIKMEPFSAR,2.92
8,VYYIFERLCAPLFRNIKNEPFSAR,1.52
9,VYYIFERLCAPLFRNIKHEPFSAR,3.42
10,VYYIFERLCAPLFRNIKTEPFSAR,1.91
11,VYYIFERLCAPLFRNIKVEPFSAR,1.88
12,VYYIFERLCAPLFRNIKGEPFSAR,2.28
13,VYYIFERLCAPLFRNIKYEPFSAR,3.88
14,VYYIFERLCAPLFRNIKFEPFSAR,1.28
15,VYYIFERLCAPLFRNIKCEPFSAR,2.19
16,VYYIFERLCAPLFRNIKDEPFSAR,2.9
17,VYYIFERLCAPLFRNWKQEPFSAR,3.96
18,VYYIFERLCAPLFRNCKQEPFSAR,2.46
19,VYYIFERLCAPLFRNMKQEPFSAR,1.75
20,VYYIFERLCAPLFRNLKQEPFSAR,2.61
21,VYYIFERLCAPLFRNKKQEPFSAR,2.45
22,VYYIFERLCAPLFRNDKQEPFSAR,3.95
23,VYYIFERLCAPLFRNTKQEPFSAR,1.58

row,Variant,protein stability index
1,VYYIFERLCAPLFRNAKQEPFSAR,1.91
2,VYYIFERLCAPLFRNYKQEPFSAR,2.17
3,VYYIFERLCAPLFRNGKQEPFSAR,2.33
4,VYYIFERLCAPLFYNIKQEPFSAR,1.87
5,VYYIFERLCAPLFTNIKQEPFSAR,3.18
6,VYYIFERLCAPLFRVIKQEPFSAR,1.82
7,VYYIFERLCAPLFRAIKQEPFSAR,2.28
8,VYYIFERLCAPLFRYIKQEPFSAR,1.85
9,VYYIFERLCAPLFRWIKQEPFSAR,2.15
10,VYYIFERLCAPLFRIIKQEPFSAR,2.5
11,VYYIFERLCAPLFRHIKQEPFSAR,2.86
12,VYYIFERLCAPLFRCIKQEPFSAR,2.61
13,VYYIFERLCAPLFRLIKQEPFSAR,2.75
14,VYYIFERLCAPLFREIKQEPFSAR,3.52
15,VYYIFERLCAPLFRTIKQEPFSAR,3.46
16,VYYIFERLCAPLFRRIKQEPFSAR,2
17,VYYIFERLCAPLFRKIKQEPFSAR,2.84
18,VYYIFERLCAPLFRFIKQEPFSAR,1.67
19,VYYIFERLCAPLFRGIKQEPFSAR,1.65
20,VYYIFERLCAPLFRMIKQEPFSAR,2.01
